In general, Kd refers to the concentration at which binding is half-saturated. Read a low Kd as higher affinity.

The target in experiment [1] is T1, human hepcidin-25 (human).
T1 construct: also called mature human hepcidin; human hepcidin-25 control peptide
T1 peptide: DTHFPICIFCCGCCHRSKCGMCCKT
The experiment can be described thus: SPR, 25 C, Mab captured, hepcidin-25 injected. On the procedure:
A SPR biosensor such as the BlAcore® T100 may be used to measure binding kinetics and affinity of antibodies such as the antibodies disclosed herein. The BIAcore® system utilizes the optical properties of SPR to detect alteration in protein concentration of interacting molecules within a dextran biosensor matrix. Except as noted, all reagents and materials are purchased from BIAcore® AB (Upsala, Sweden). All measurements are performed at 25° C. Samples are dissolved in HBS-EP buffer (150 mM sodium chloride, 3 mM EDTA, 0.05% (w/v) surfactant P-20, and 10 mM HEPES, pH 7.4). To capture Fabs with human kappa, goat-anti-human kappa is immobilized on flow cells 1 to 4 of a CMS sensor chip at a level of 5000-10000 response units (Rus) using an amine coupling kit. To capture Mabs with mouse IgG1, goat-anti-mouse Fc gamma is immobilized on flow cells 1 to 4 of a CMS sensor chip at a level of 5000-10000 Rus using an amine coupling kit. […] Fabs prepared from E. coli periplasma and Mabs prepared from mammalian cell culture are evaluated using multiple analytical cycles. […] The measurements are obtained at 25° C. and the association and dissociation rates for each cycle are evaluated using a “1:1 with mass transfer” binding model in the BIAevaluation software.
A general note: Surface plasmon resonance follows binding to a sensor surface in real time, without labels.

Experiment [2] has as its target T2, human hepcidin-22 (human).
T2 construct: Endogenous serum form (MW 2436 Da) in the MALDI-TOF experiments
T2 peptide: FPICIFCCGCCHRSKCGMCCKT
In words: MSD sandwich immunoassay: Mab OH4 capture, ruthenium-labelled Mab 3.23 detection; no sandwich signal (assigned to the capture antibody OH4). On the procedure: (§1) Streptavidin-coated and blocked wells of an ELISA plate were incubated for 1 hour with biotinylated Mab OH4 at a concentration of 2 mg/L. Afterward, wells were aspirated and washed three times with TBST (Tris buffered saline containing 10 mmol/L Tris pH 7.40, 150 mmol/L NaCl with 1 mL Tween 20/L). Next, 100 μL of hepcidin standards (varying concentrations of synthesized hepcidin-25 protein in assay buffer consisting of 50 mmol/L HEPES, pH 7.40, 150 mmol/L NaCl, 10 mL/L Triton X-100, 5 mmol/L EDTA, and 5 mmol/L EGTA) were added to the wells to generate a calibration curve. At the same time, serum samples were diluted 1:20 in assay buffer and added to their respective wells, and the ELISA plate was allowed to incubate for 1 hour at room temperature. […] Following aspiration, wells were washed three times with TBST, and the ELISA plate was developed using a MSD reader, which passed a voltage across the wells and recorded ruthenium electrochemiluminescence from each well. MSD software and SigmaPlot version 8.0 were used for fitting of the calibration curves for the ELISA.
(§2) Synthesized hepcidin-25 protein was prepared at a concentration of 10 μg/L and serially diluted to create a standard curve.

For experiment [3], the target named is T3, human hepcidin-20 (human).
T3 construct: Endogenous serum form (MW 2192 Da) in the MALDI-TOF experiments
T3 peptide: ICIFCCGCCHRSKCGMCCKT
The description is as above. Here is the method:
as §1, §2

For experiment [4], the target named is T1, human hepcidin-25. The experiment can be described thus: SPR, 25 C.
For experiment [5], the target named is T1, human hepcidin-25. The experiment can be described thus: immunoprecipitation from human serum on plate-coated antibody, acid elution, MALDI-TOF mass spectrometry (linear mode). An excerpt: FIG. 3 depicts a MALDI-TOF mass spectrum of the forms of human hepcidin immunoprecipitated from human sera with the anti-hepcidin-25 selective Mab 5E8. Signal 1 has a mass which is consistent with the expected mass of intact human hepcidin-25 (2790 Da). […] The mass spectrum was generated on a MALDI-TOF mass spectrometer utilizing a positive ion, linear mode method with a-cyano-4-hydroxycinnamic acid (peptide matrix) as sample matrix essentially as described in Example 6 below.
Anti-human hepcidin Mabs or Fabs are coated onto separate wells of a 96-well standard ELISA plate in carbonate-bicarbonate (pH 9.4) buffer for 1 hour at room temperature at a concentration of 2 mg/L. The wells are then aspirated and washed 3 times with TBST. Human serum samples containing a known amount of hepcidin-25 (diluted in assay buffer) is added at 100 μl/well for one hour at room temperature. The wells are aspirated and washed 3 times with TBST. […] The sample is dried and analyzed with a 4700 TOF-TOF Mass Spectrometer (Applied Biosystems) operated in the linear mode.
(§3) Similar experiments were performed using MALDI-TOF spectrometry to determine which hepcidin species in human serum are bound by Mab 5E8. These experiments determined that Mab 5E8 bound only hepcidin-25 in human serum (FIGS. 3 and 4). […]

For experiment [6], the target named is T3, human hepcidin-20. The experiment can be described thus: immunoprecipitation from human serum, MALDI-TOF mass spectrometry. Here is the method: Anti-human hepcidin Mabs or Fabs are coated onto separate wells of a 96-well standard ELISA plate in carbonate-bicarbonate (pH 9.4) buffer for 1 hour at room temperature at a concentration of 2 mg/L. The wells are then aspirated and washed 3 times with TBST. Human serum samples containing a known amount of hepcidin-25 (diluted in assay buffer) is added at 100 μl/well for one hour at room temperature. The wells are aspirated and washed 3 times with TBST. Captured hepcidin polypeptides are eluted by adding 40 μL/well of 0.1% formic acid for 5 minutes at room temperature. The eluted samples are collected and concentrated with a C4 ZipTip™ (Millipore, Billerica, Mass.), a 10 μL pipette tip with a bed of chromatography media for purifying and concentrating femtomoles to picomoles of protein or peptides, ideally ranging from 25,000 MW to 100,000 MW. […] The sample is dried and analyzed with a 4700 TOF-TOF Mass Spectrometer (Applied Biosystems) operated in the linear mode.
as §3

In experiment [7] the target is T4, rat hepcidin-25 (rat).
T4 peptide: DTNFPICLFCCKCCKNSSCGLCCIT
In words: SPR, 25 C, Mab captured.

Experiment [8] has as its target T5, mouse hepcidin-25 (mouse).
T5 peptide: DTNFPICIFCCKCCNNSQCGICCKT
In words: SPR, 25 C, Mab captured.

For experiment [9], the target named is T1, human hepcidin-25. In words: SPR.
Experiment [10] has as its target T2, human hepcidin-22. In words: SPR, 25 C.
The target in experiment [11] is T4, rat hepcidin-25. The experiment can be described thus: SPR, 25 C.
For experiment [12], the target named is T5, mouse hepcidin-25. The experiment can be described thus: SPR, 25 C.
Experiment [13] addresses T1, human hepcidin-25. The experiment can be described thus: SPR, Mab captured by anti-mouse IgG1 Fc. Here is the method: Briefly, on a Biacore® T100, goat anti-mouse IgG1 Fc polyclonal antibody was immobilized onto flow cell 1 to 4 of CMS chip at 5000-15000 response units (Ru). Mab 5E8 was captured on flow cell 2, Mab 4C11 was captured on flow cell 3, and Mab 3A9 was captured on flow cell 4. Flow cell 1 was used as a reference flow cell. All flow cells were then injected with human hepcidin-25.

The target in experiment [14] is T3, human hepcidin-20. The experiment can be described thus: SPR, 25 C, Mab captured.
The target of experiment [15] is T3, human hepcidin-20. In words: immunoprecipitation from human serum on plate-coated antibody, acid elution, MALDI-TOF mass spectrometry (linear mode). An excerpt:
(§4) Signal 1 has a mass which is consistent with the expected mass of intact human hepcidin-25 (approximate molecular weight (MW) of 2790 Daltons (Da)). Signal 2 has a mass which is consistent with the expected mass of intact human hepcidin-20 (MW of 2192 Da). […] The mass spectrum was generated on a MALDI-TOF mass spectrometer utilizing a positive ion, linear mode method with a-cyano-4-hydroxycinnamic acid (peptide matrix) as sample matrix essentially as described in Example 6 below.
(§5) Anti-human hepcidin Mabs or Fabs are coated onto separate wells of a 96-well standard ELISA plate in carbonate-bicarbonate (pH 9.4) buffer for 1 hour at room temperature at a concentration of 2 mg/L. The wells are then aspirated and washed 3 times with TBST. Human serum samples containing a known amount of hepcidin-25 (diluted in assay buffer) is added at 100 μl/well for one hour at room temperature. The wells are aspirated and washed 3 times with TBST. Captured hepcidin polypeptides are eluted by adding 40 μL/well of 0.1% formic acid for 5 minutes at room temperature. […] The sample is dried and analyzed with a 4700 TOF-TOF Mass Spectrometer (Applied Biosystems) operated in the linear mode.

Experiment [16] concerns the target T1, human hepcidin-25. The experiment is described as above.
Description: as §4, §5

The target in experiment [17] is T1, human hepcidin-25. In words: SPR, Mab immobilized on CM4 chip. On the procedure:
The flow cells were then injected with human hepcidin-25. Next, the flow cells were injected with Mab 5E8.

Substitutions are numbered along the chain they refer to.

B1: mouse monoclonal antibody OH4 (antibody, mouse IgG1, kappa, V domains shown)
VH: EVKLVESGGGLVKPGGSLKISCAASGFAFSSYDMSWVRQTPEKRLEWVATIISGGTYTYYPDSVKGRFTISRDNARNTLNLQMSSLRAEDTALYYCADDGYIHWGQGTLVTVSA
VL: DIVMTQIPLTLSVTIGQPASISCKSSQSLLYPNGKTYLTWLLQRPGQSPKRLIYLVSKLDPGVPDRFTGSGSGADFTLKISRVEAEDLGIYYCIQGSHFPWTFGGGTKLELKR
notes: also called Mab OH4
Molecule B1 registered a Kd in the experiment with human hepcidin-25 [1] of roughly 1.2 nM. The binding result with human hepcidin-22 [2] and with human hepcidin-20 [3] was “no binding (tested: 10 ug/L)” throughout.

B2: mouse monoclonal antibody OB3 (antibody, mouse IgG1, kappa, V domains shown)
VH: B1 VH
VL: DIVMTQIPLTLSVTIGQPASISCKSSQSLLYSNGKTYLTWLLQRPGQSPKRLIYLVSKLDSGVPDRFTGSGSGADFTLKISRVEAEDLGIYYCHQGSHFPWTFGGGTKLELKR
As to B2, the binding result with human hepcidin-25 [4] is “binds”.

B3: mouse monoclonal antibody OE1 (antibody, mouse IgG1, kappa, V domains shown)
VH: B1 VH
VL: B1 VL with I94F, T102V
notes: also called 0E1
In the case of B3, the binding result with human hepcidin-25 [4] is listed as “binds”.

B4: mouse monoclonal antibody OB1 (antibody, mouse IgG1, kappa, V domains shown)
VH: B1 VH
VL: B1 VL with P32R, I94H
B4: the binding result with human hepcidin-25 [4] is reported as “binds”.

B5: mouse monoclonal antibody 5E8 (antibody, mouse IgG1, kappa, V domains shown)
VH: B1 VH
VL: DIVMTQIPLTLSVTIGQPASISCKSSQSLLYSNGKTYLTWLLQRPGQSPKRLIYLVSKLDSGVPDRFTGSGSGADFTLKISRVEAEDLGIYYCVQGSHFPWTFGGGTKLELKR
notes: also called Mab 5E8
Consider B5, for which the binding result with human hepcidin-25 [5] is listed as “binds”; with human hepcidin-20 [6], “no binding”; with rat hepcidin-25 [7], “no binding”; in the experiment with mouse hepcidin-25 [8], “no binding”.

B6: mouse monoclonal antibody 3A9 (antibody, mouse IgG1, kappa, V domains shown)
VH: EVKLVESGPGILQPSQTLSLTCSFSGFSLNSYGFGIGWIRQPSGKGLEWLTHIWWNGNKYYNTTLKSRLTISKDTSNNQVFLKIASLDTADTATYYCALIHYYGNSYGFAYWGQGTLVTVSA
VL: DIQMNQSPALMSASPGEKVTMTCSASSSVSSMYWYQQKPRSSPKPWIYLTSNLASGVPPRFSGSGSGTSYSLTISNMEAEDAATYYCQQWSSYPPTFGGGTKLEIKR
notes: also called Mab 3A9
B6: the binding result in the experiment with human hepcidin-25 [9] is listed as “binds”.

B7: mouse monoclonal antibody 4C11 (antibody, mouse IgG1, kappa, V domains shown)
VH: QVQLKQSGPGILQPSQTLSLTCSFSGFSLSTYGIGVGWIRQPAGKGLEWLAHIWWNDNKSYNTALKSRLTISKDTSNNQVFLKIASVDTTHTATYYCVVIGYYGSTSGFAYWGQGTLVTVSA
VL: B6 VL with D1Q, Q3L, M4L, N5T, S31Y, P59A, N76S, Y93N
notes: also called Mab 4C11
For B7, the Kd with human hepcidin-22 [10] was roughly 209 nM. The binding result with rat hepcidin-25 [11] is on record as “binds”; with mouse hepcidin-25 [12], “binds”; with human hepcidin-25 [13], “binds”; in the experiment with human hepcidin-20 [14] it was “no binding”.

B8: Anti-hepcidin Mab 3.23 (antibody, human IgG4 S228P, kappa, V domains shown)
VH: QVQLVQSGAEVKKPGSSVKVSCKASGYTFLIYPISWVRQAPGQGLEWMGNFHPYLGVTNYVEKFKGRVTITADKSTSTAYMELSSLRSEDTAVYYCARGGTGSFDYWGQGTTVTVSS
VL: DIQMTQSPSSLSASVGDRVTITCSASSRVSSTYLFWYQQKPGKAPKLLIYRTSPLASGVPSRFSGSGSGTDFTLTISSLQPEDFATYYCQQWSGYPFVFGGGTKVEIKR
For B8, the binding result in the experiment with human hepcidin-20 [15] and with human hepcidin-25 [16] was “binds” each time.

B9: Anti-hepcidin Mab 3.12 (antibody, human IgG4 S228P, kappa, V domains shown)
VH: B8 VH with V61L
VL: B8 VL with P54T, A56T
B9: the binding result with human hepcidin-25 [17] is “binds”.

The record behind these values is patent publication US20110189190A1 (Eli Lilly, published 2011).
